Assays:
HvRPA3 CTD-1 [1] = biological target: T1, HvRPA3 CTD-1 (Haloferax volcanii DS2 (wild-type), UniProt D4GZS1 164-311); assay: analytical SEC; any KCl condition (0.2, 1, 3 M); data not shown; FA: 50 mM HEPES pH 7.0, 10% glycerol, 0.03% BSA, 20 nM Cy5-oligo, 0.2, 1 or 3 M KCl, room temperature 10 min; SEC: 50 mM HEPES pH 7.0, 0.2, 1 or 3 M KCl; EMSA:; details: protein: recombinant; tags: N-terminal 6xHis; chain copies: 4; single strand
T1 sequence: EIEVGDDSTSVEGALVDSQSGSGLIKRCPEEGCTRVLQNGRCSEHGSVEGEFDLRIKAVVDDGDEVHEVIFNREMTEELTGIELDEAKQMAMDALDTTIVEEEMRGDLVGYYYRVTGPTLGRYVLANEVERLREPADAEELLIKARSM

HvRPA3 CTD-2 [2] = biological target: T2, HvRPA3 CTD-2 (Haloferax volcanii DS2 (wild-type), UniProt D4GZS1 164-311); assay: as above; details: protein: recombinant; tags: N-terminal 6xHis; single strand
T2 sequence: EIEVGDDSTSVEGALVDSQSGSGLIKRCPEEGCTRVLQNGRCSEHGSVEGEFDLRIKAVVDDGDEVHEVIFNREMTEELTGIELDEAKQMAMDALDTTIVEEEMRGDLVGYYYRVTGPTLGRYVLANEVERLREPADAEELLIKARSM

[3] = biological target: the molecule itself; assay: SEC; analytical, 10/300 Superdex 200, 50 mM HEPES pH 7.0, 1.0 M KCl, with equimolar (monomer equivalent) 18mer ssDNA
[4] = biological target: the molecule itself; assay: SEC; analytical, 10/300 Superdex 200, 50 mM HEPES pH 7.0, 0.2 M KCl; 250 ug protein incubated one hour in the buffer; calibrated with gel filtration standards
HvRPA3 full length [5] = biological target: T3, HvRPA3 full length (Haloferax volcanii DS2 (wild-type), UniProt D4GZS1 1-311); assay: fluorescence anisotropy; 3 M KCl; Hill 1.2 ± 0.1; FA: 50 mM HEPES pH 7.0, 10% glycerol, 0.03% BSA, 20 nM Cy5-oligo, 0.2, 1 or 3 M KCl, room temperature 10 min; SEC: 50 mM HEPES pH 7.0, 0.2, 1 or 3 M KCl; EMSA:; details: protein: recombinant; tags: N-terminal 6xHis; label: 5' Cy5; single strand
T3 sequence: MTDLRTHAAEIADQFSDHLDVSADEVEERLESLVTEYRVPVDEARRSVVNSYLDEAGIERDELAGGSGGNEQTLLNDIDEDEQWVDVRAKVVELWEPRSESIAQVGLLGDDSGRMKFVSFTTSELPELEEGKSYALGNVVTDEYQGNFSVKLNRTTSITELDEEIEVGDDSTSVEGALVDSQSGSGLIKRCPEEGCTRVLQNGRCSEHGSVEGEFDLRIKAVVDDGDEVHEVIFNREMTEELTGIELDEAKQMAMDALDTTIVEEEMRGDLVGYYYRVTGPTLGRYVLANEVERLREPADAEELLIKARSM

HvRPA3 CTD-1 [6] = biological target: T1, HvRPA3 CTD-1; assay: fluorescence anisotropy; any KCl condition; data not shown; FA: 50 mM HEPES pH 7.0, 10% glycerol, 0.03% BSA, 20 nM Cy5-oligo, 0.2, 1 or 3 M KCl, room temperature 10 min; SEC: 50 mM HEPES pH 7.0, 0.2, 1 or 3 M KCl; EMSA:; details: protein: recombinant; tags: N-terminal 6xHis; chain copies: 4; label: 5' Cy5; single strand
HvRPA3 CTD-2 [7] = biological target: T2, HvRPA3 CTD-2; assay: as above; details: protein: recombinant; tags: N-terminal 6xHis; label: 5' Cy5; single strand
HvRPA3 full length [8] = biological target: T3, HvRPA3 full length; assay: fluorescence anisotropy; 1 M KCl; Hill 0.9 ± 0.1; monomer equivalents; FA: 50 mM HEPES pH 7.0, 10% glycerol, 0.03% BSA, 20 nM Cy5-oligo, 0.2, 1 or 3 M KCl, room temperature 10 min; SEC: 50 mM HEPES pH 7.0, 0.2, 1 or 3 M KCl; EMSA:; details: protein: recombinant; tags: N-terminal 6xHis; label: 5' Cy5; single strand
HvRPA3-NTD (OB-fold) = biological target: T4, HvRPA3-NTD (OB-fold) (Haloferax volcanii DS2 (wild-type), UniProt D4GZS1 1-163); assay: fluorescence anisotropy; 1 M KCl; two-site fit, high-affinity site; dimer concentration; FA: 50 mM HEPES pH 7.0, 10% glycerol, 0.03% BSA, 20 nM Cy5-oligo, 0.2, 1 or 3 M KCl, room temperature 10 min; SEC: 50 mM HEPES pH 7.0, 0.2, 1 or 3 M KCl; EMSA:; details: protein: recombinant; tags: N-terminal 6xHis; label: 5' Cy5; single strand
T4 sequence: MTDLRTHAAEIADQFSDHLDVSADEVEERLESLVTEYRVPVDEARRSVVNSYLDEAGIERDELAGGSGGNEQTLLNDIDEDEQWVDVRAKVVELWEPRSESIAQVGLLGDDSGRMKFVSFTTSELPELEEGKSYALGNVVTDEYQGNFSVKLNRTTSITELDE

[9] = biological target: the molecule itself; assay: SEC; analytical, 10/300 Superdex 200, 50 mM HEPES pH 7.0, 1.0 M KCl; 250 ug protein incubated one hour in the buffer; calibrated with gel filtration standards
[10] = biological target: the molecule itself; assay: SEC; last step of the purification, 26/60 Superdex 200, 50 mM Hepes pH 7.0, 1.0 M NaCl

## GCGTGTGTGGTGGTGTGC (ssDNA) [18mer ssDNA (SEC)]
HvRPA3 CTD-1 [1]
  binding result: no binding
HvRPA3 CTD-2 [2]
  binding result: no binding

B1: HvRPA3 N-terminal domain (residues 1-163) (domain or fragment, Haloferax volcanii, UniProt D4GZS1 1-163, looked up)
chain: MTDLRTHAAEIADQFSDHLDVSADEVEERLESLVTEYRVPVDEARRSVVNSYLDEAGIERDELAGGSGGNEQTLLNDIDEDEQWVDVRAKVVELWEPRSESIAQVGLLGDDSGRMKFVSFTTSELPELEEGKSYALGNVVTDEYQGNFSVKLNRTTSITELDE
notes: Replication protein A3 (RPA3) of Haloferax volcanii, N-terminal domain residues 1-163, holds the OB-fold; Tagged construct has a predicted MW of 18.9 x 10^3; also called NTD; HvRPA3-NTD; source: E. coli B834 (DE3), purified (ammonium sulphate fractionation, Talon resin, Superdex 200); not shown: 6xHis, N-terminal, kept
[3]
  stoichiometry N: 2
[4]
  stoichiometry N: 3

## GCGTGTGTGGTGGTGTGC (ssDNA) [Cy5-18mer ssDNA (FA)]
HvRPA3 full length [5]
  Kd: 24.1 ± 2.9 nM
HvRPA3 CTD-1 [6]
  binding result: no binding
HvRPA3 CTD-2 [7]
  binding result: no binding
HvRPA3 full length [8]
  Kd: 53.9 ± 18.3 nM
HvRPA3-NTD (OB-fold)
  Kd: 4.1 ± 7.9 nM

B2: Replication protein A3 from Haloferax volcanii, full length (natural protein, UniProt D4GZS1 1-311, looked up)
chain: MTDLRTHAAEIADQFSDHLDVSADEVEERLESLVTEYRVPVDEARRSVVNSYLDEAGIERDELAGGSGGNEQTLLNDIDEDEQWVDVRAKVVELWEPRSESIAQVGLLGDDSGRMKFVSFTTSELPELEEGKSYALGNVVTDEYQGNFSVKLNRTTSITELDEEIEVGDDSTSVEGALVDSQSGSGLIKRCPEEGCTRVLQNGRCSEHGSVEGEFDLRIKAVVDDGDEVHEVIFNREMTEELTGIELDEAKQMAMDALDTTIVEEEMRGDLVGYYYRVTGPTLGRYVLANEVERLREPADAEELLIKARSM
notes: Replication protein A3 (RPA3) of Haloferax volcanii, amplified from genomic DNA of wild-type DS2; full length, residues 1-311 (the CTD construct ends at 311); Oligomeric state depends on the salt concentration; Tagged protein has a predicted MW of 35.4 x 10^3; also called HvRPA3; RPA3; source: E. coli B834 (DE3), purified (ammonium sulphate fractionation, Talon resin, Superdex 200); not shown: …
[4]
  stoichiometry N: 4
[9]
  stoichiometry N: 2

B3: HvRPA3 C-terminal domain (residues 164-311), second size exclusion peak (CTD-2) (domain or fragment, Haloferax volcanii, UniProt D4GZS1 164-311, looked up)
chain: EIEVGDDSTSVEGALVDSQSGSGLIKRCPEEGCTRVLQNGRCSEHGSVEGEFDLRIKAVVDDGDEVHEVIFNREMTEELTGIELDEAKQMAMDALDTTIVEEEMRGDLVGYYYRVTGPTLGRYVLANEVERLREPADAEELLIKARSM
notes: Replication protein A3 (RPA3) of Haloferax volcanii, C-terminal domain residues 164-311, holds the zinc finger motif; Same construct as m3; the peak of lower apparent mass in the last purification step; Holds zinc (0.53 mol/mol); also called HvRPA3-CTD-2; source: E. coli B834 (DE3), purified (ammonium sulphate fractionation, Talon resin, Superdex 200; second of two peaks); not shown: 6xHis, …
[10]
  stoichiometry N: 2
[4]
  stoichiometry N: 3

B4: HvRPA3 C-terminal domain (residues 164-311), first size exclusion peak (CTD-1) (domain or fragment, Haloferax volcanii, UniProt D4GZS1 164-311, looked up)
chain: EIEVGDDSTSVEGALVDSQSGSGLIKRCPEEGCTRVLQNGRCSEHGSVEGEFDLRIKAVVDDGDEVHEVIFNREMTEELTGIELDEAKQMAMDALDTTIVEEEMRGDLVGYYYRVTGPTLGRYVLANEVERLREPADAEELLIKARSM
notes: Replication protein A3 (RPA3) of Haloferax volcanii, C-terminal domain residues 164-311, holds the zinc finger motif; Same construct as m4; the peak of higher apparent mass in the last purification step, concentrated apart; also called HvRPA3-CTD-1; source: E. coli B834 (DE3), purified (ammonium sulphate fractionation, Talon resin, Superdex 200; first of two peaks); not shown: 6xHis, N-terminal, …
[10]
  stoichiometry N: 4
[4]
  stoichiometry N: 7
[9]
  stoichiometry N: 5

From PMC3438722, “DNA Binding in High Salt: Analysing the Salt Dependence of Replication Protein A3 from the Halophile Haloferax volcanii” (Archaea, 2012)
